The target of the data set is interleukin-6 (IL-6) (UniProt P05231 30-212). Briefly: electrochemical aptasensor (DPV, [Fe(CN)6]3-/4- vs poly-methylene blue); aptamer immobilised on CS/MWCNT/pMB electrode, BSA blocked; 30 min incubation; linear 0.001-1000 ng/mL, LOD 0.54 pg/mL (not a Kd); 1 uM aptamer for immobilisation, IL-6 incubated 30 min with stirring; binding buffer, salt, pH and temperature not given in the material. The settings on record: protein: commercial; hairpin (stated).
interleukin-6 (IL-6), sequence (P05231 30-212): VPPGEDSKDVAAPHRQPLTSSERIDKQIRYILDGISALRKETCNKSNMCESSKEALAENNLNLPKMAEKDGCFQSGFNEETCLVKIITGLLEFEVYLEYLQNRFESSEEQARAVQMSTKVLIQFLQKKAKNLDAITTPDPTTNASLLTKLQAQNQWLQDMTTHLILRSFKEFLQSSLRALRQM

On to GGTGGCAGGAGGACTATTTATTTGCTTTTCT (ssDNA, 3'-NH2) [IL-6 aptamer (NH2-Apt)], for which the binding result was “binds”.

Source of the values: publication PMC11506342, “Ratiometric Electrochemical Detection of Interleukin-6 Using Electropolymerized Methylene Blue and a Multi-Walled Carbon-Nanotube-Modified Screen-Printed Carbon Electrode”.
